This data set has as its system Escherichia coli TOP10. Nature of the data set: shrunken log2 fold change of peptide-encoding DNA abundance (4.5 h post-induction vs induction); higher = less antimicrobial activity (less host growth inhibition). Particulars: time post-induction: 4.5 h; library: site-saturation at positions 5, 18, 19, 20.

125 sequences from the supplement of paper PMC9112550, “Optimization of the antimicrobial peptide Bac7 by deep mutational scanning” (BMC Biology, 2022) can be followed below.
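Also: peptides expressed intracellularly from a pBAD plasmid library in pooled LB shake-flask culture, induced with 0.3% L-arabinose, DNA abundance read by NGS, three biological replicates, DESeq2 with apeglm shrinkage.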

As to RRIRFRPPRLPRPRPRPHEGPRP, the “shrunken log2 fold change” value was 0.0417. For the sequence RRIRPRPPRLPRPRPRPEFNPRP, the “shrunken log2 fold change” value was determined as 0.0717. In the case of RRIRIRPPRLPRPRPRPVPRPRP it was 0.0562. Next, RRIRTRPPRLPRPRPRPAWCPRP: 0.0035; RRIRRRPPRLPRPRPRPRQTPRP: 0.0881. Next, RRIRQRPPRLPRPRPRPTNFPRP: -0.159; RRIRVRPPRLPRPRPRPVSKPRP: -0.249.

As to RRIRVRPPRLPRPRPRPDNKPRP, the “shrunken log2 fold change” value was -0.581. As for RRIRDRPPRLPRPRPRPIFRPRP, the “shrunken log2 fold change” value is -0.202. In the case of RRIRHRPPRLPRPRPRPVWPPRP it was 0.217; in that of RRIRIRPPRLPRPRPRPVSCPRP, -0.0157; in that of RRIRHRPPRLPRPRPRPMAAPRP, 0.53. In the case of RRIRWRPPRLPRPRPRPRGVPRP it was 0.756.

For RRIRKRPPRLPRPRPRPMDPPRP, the “shrunken log2 fold change” value came to 0.115. For RRIRIRPPRLPRPRPRPQQDPRP, the “shrunken log2 fold change” value is -0.442.

Turning to RRIRLRPPRLPRPRPRPWQTPRP, the “shrunken log2 fold change” value is -0.0245. In the case of RRIRFRPPRLPRPRPRPYSGPRP it was -0.293. In the case of RRIRLRPPRLPRPRPRPVMYPRP it was -0.302. As for RRIRDRPPRLPRPRPRPVVYPRP, the “shrunken log2 fold change” value was -0.349. Turning to RRIRTRPPRLPRPRPRPGTAPRP, the “shrunken log2 fold change” value amounted to 0.166.

On to RRIRKRPPRLPRPRPRPWQGPRP, for which the “shrunken log2 fold change” value came to 0.0142. As for RRIRMRPPRLPRPRPRPHVSPRP, the “shrunken log2 fold change” value was -0.0138. In the case of RRIRCRPPRLPRPRPRPLTFPRP it was -0.419; in that of RRIRHRPPRLPRPRPRPHVVPRP, -0.0954. In the case of RRIRWRPPRLPRPRPRPLEDPRP it was 0.047. Next, RRIRGRPPRLPRPRPRPMQMPRP: 1.5. As for RRIRNRPPRLPRPRPRPVDSPRP, the “shrunken log2 fold change” value was -0.196.

As for RRIRIRPPRLPRPRPRPAWTPRP, the “shrunken log2 fold change” value turned out to be 0.304.

For the sequence RRIRSRPPRLPRPRPRPPIYPRP, the “shrunken log2 fold change” value is -0.0803. For the sequence RRIRTRPPRLPRPRPRPDTHPRP, the “shrunken log2 fold change” value was -0.424. With RRIRARPPRLPRPRPRPCSRPRP, the “shrunken log2 fold change” value stood at 0.21. RRIRSRPPRLPRPRPRPTVMPRP: the “shrunken log2 fold change” value turned out to be 0.00504. Next, RRIRGRPPRLPRPRPRPEDCPRP: 0.874; RRIRHRPPRLPRPRPRPLNGPRP: -0.178; RRIRKRPPRLPRPRPRPSKCPRP: -0.388.

RRIRQRPPRLPRPRPRPFKMPRP: the “shrunken log2 fold change” value was -0.217. Next, RRIRARPPRLPRPRPRPVSIPRP: 0.119.

Turning to RRIRYRPPRLPRPRPRPKTGPRP, the “shrunken log2 fold change” value was -0.243.

Take RRIRMRPPRLPRPRPRPCHAPRP: the “shrunken log2 fold change” value was -0.00133. In the case of RRIRCRPPRLPRPRPRPYDQPRP it was -0.16; in that of RRIRMRPPRLPRPRPRPVCSPRP, -0.0933; in that of RRIRLRPPRLPRPRPRPLQLPRP, 0.267. Next, RRIRGRPPRLPRPRPRPLVIPRP: 0.187; RRIRRRPPRLPRPRPRPWEDPRP: 0.0594. Next, RRIRCRPPRLPRPRPRPADNPRP: -0.219; RRIRFRPPRLPRPRPRPPCEPRP: 0.409; RRIRLRPPRLPRPRPRPITRPRP: 0.177.

As to RRIRTRPPRLPRPRPRPLECPRP, the “shrunken log2 fold change” value is -0.0489. Next, RRIRHRPPRLPRPRPRPWNRPRP: -0.297. In the case of RRIRVRPPRLPRPRPRPIVEPRP it was -0.0668. Next, RRIRVRPPRLPRPRPRPDGPPRP: 0.0955. On to RRIRTRPPRLPRPRPRPTSCPRP, for which the “shrunken log2 fold change” value was found to be 0.104.

For RRIRPRPPRLPRPRPRPDTAPRP, the “shrunken log2 fold change” value was -0.0311.

As for RRIRNRPPRLPRPRPRPCCMPRP, the “shrunken log2 fold change” value was -0.0549. Next, RRIRMRPPRLPRPRPRPGERPRP: 0.772; RRIRARPPRLPRPRPRPVWRPRP: 0.873; RRIRQRPPRLPRPRPRPCCGPRP: 0.0293. In the case of RRIRMRPPRLPRPRPRPGNEPRP it was 1.05; in that of RRIRVRPPRLPRPRPRPNLNPRP, -0.342; in that of RRIRFRPPRLPRPRPRPFMPPRP, -0.469.

Regarding RRIRRRPPRLPRPRPRPFGEPRP, the “shrunken log2 fold change” value is 0.412. RRIRNRPPRLPRPRPRPTWSPRP: the “shrunken log2 fold change” value is -0.352. With RRIRQRPPRLPRPRPRPPWDPRP, the “shrunken log2 fold change” value is 0.224. Turning to RRIRSRPPRLPRPRPRPFTAPRP, the “shrunken log2 fold change” value is -0.492.

RRIRSRPPRLPRPRPRPTLIPRP: the “shrunken log2 fold change” value was -0.0693. In the case of RRIRDRPPRLPRPRPRPQSIPRP, the “shrunken log2 fold change” value was 0.00839.

Turning to RRIRSRPPRLPRPRPRPFNVPRP, the “shrunken log2 fold change” value was -0.343.

Consider RRIRPRPPRLPRPRPRPASEPRP, for which the “shrunken log2 fold change” value came out at 0.0613.

Regarding RRIRMRPPRLPRPRPRPTYPPRP, the “shrunken log2 fold change” value is -0.0846. Next, RRIRVRPPRLPRPRPRPIAVPRP: 0.0926; RRIRIRPPRLPRPRPRPPAEPRP: 0.583. With RRIRCRPPRLPRPRPRPPLRPRP, the “shrunken log2 fold change” value is 0.35. Next, RRIRNRPPRLPRPRPRPHKPPRP: -0.368; RRIRKRPPRLPRPRPRPRNLPRP: 0.525; RRIRDRPPRLPRPRPRPCPPPRP: -0.249. In the case of RRIRERPPRLPRPRPRPFMMPRP it was -0.584; in that of RRIRMRPPRLPRPRPRPVHAPRP, 1.18; in that of RRIRTRPPRLPRPRPRPYYIPRP, -0.845. Next, RRIRVRPPRLPRPRPRPWEEPRP: -0.317; RRIRARPPRLPRPRPRPHCQPRP: 0.0405. For the sequence RRIRRRPPRLPRPRPRPQVFPRP, the “shrunken log2 fold change” value worked out at 0.408. Next, RRIRDRPPRLPRPRPRPKCMPRP: -0.153; RRIRKRPPRLPRPRPRPNASPRP: 0.236. In the case of RRIRNRPPRLPRPRPRPEFLPRP it was 0.00817. Next, RRIRERPPRLPRPRPRPEQCPRP: -0.0274; RRIRVRPPRLPRPRPRPGYPPRP: -0.343; RRIRNRPPRLPRPRPRPAHNPRP: -0.259.

Turning to RRIRPRPPRLPRPRPRPVHKPRP, the “shrunken log2 fold change” value was -0.0637.

For the sequence RRIRYRPPRLPRPRPRPMCFPRP, the “shrunken log2 fold change” value is -0.335. Turning to RRIRQRPPRLPRPRPRPPGLPRP, the “shrunken log2 fold change” value is 0.127. Consider RRIRDRPPRLPRPRPRPNMKPRP, for which the “shrunken log2 fold change” value was determined as 0.818. For RRIRKRPPRLPRPRPRPRDMPRP, the “shrunken log2 fold change” value was 0.0936. In the case of RRIRYRPPRLPRPRPRPQESPRP it was -0.0191; in that of RRIRDRPPRLPRPRPRPVYGPRP, -0.322. In the case of RRIRGRPPRLPRPRPRPEEHPRP it was 0.131; in that of RRIRTRPPRLPRPRPRPRNYPRP, -0.0303. In the case of RRIRKRPPRLPRPRPRPLATPRP it was 0.527; in that of RRIRCRPPRLPRPRPRPYMKPRP, -0.582. Consider RRIRCRPPRLPRPRPRPNYEPRP, for which the “shrunken log2 fold change” value is -0.442.

For the sequence RRIRKRPPRLPRPRPRPGQEPRP, the “shrunken log2 fold change” value came to 0.053. As for RRIRIRPPRLPRPRPRPASYPRP, the “shrunken log2 fold change” value is -0.0337. In the case of RRIRVRPPRLPRPRPRPIDTPRP it was -0.48. Next, RRIRFRPPRLPRPRPRPFEYPRP: -0.281; RRIRHRPPRLPRPRPRPLVYPRP: -0.0877; RRIRNRPPRLPRPRPRPPRSPRP: 0.446. With RRIRQRPPRLPRPRPRPYYAPRP, the “shrunken log2 fold change” value was -0.898. In the case of RRIRGRPPRLPRPRPRPINMPRP it was -0.0846. Take RRIRERPPRLPRPRPRPWDCPRP: the “shrunken log2 fold change” value was -0.0136. Next, RRIRWRPPRLPRPRPRPNCMPRP: -0.302; RRIRTRPPRLPRPRPRPFWRPRP: 0.112; RRIRLRPPRLPRPRPRPSPMPRP: -0.107. Consider RRIRDRPPRLPRPRPRPVSCPRP, for which the “shrunken log2 fold change” value was 0.342. For RRIRERPPRLPRPRPRPCCDPRP, the “shrunken log2 fold change” value was -0.362. For the sequence RRIRNRPPRLPRPRPRPRTQPRP, the “shrunken log2 fold change” value was 0.11.

Regarding RRIRKRPPRLPRPRPRPWFKPRP, the “shrunken log2 fold change” value is -0.0948. In the case of RRIRSRPPRLPRPRPRPREHPRP it was 0.152; in that of RRIRHRPPRLPRPRPRPMFVPRP, 0.0711; in that of RRIRRRPPRLPRPRPRPPDHPRP, 0.762. Next, RRIRRRPPRLPRPRPRPNLLPRP: -0.00833; RRIRARPPRLPRPRPRPDDSPRP: 0.124; RRIRYRPPRLPRPRPRPGKNPRP: -0.13. On to RRIRIRPPRLPRPRPRPKPAPRP, for which the “shrunken log2 fold change” value worked out at 0.243. As for RRIRGRPPRLPRPRPRPVEQPRP, the “shrunken log2 fold change” value worked out at 0.0754. Take RRIRCRPPRLPRPRPRPARQPRP: the “shrunken log2 fold change” value was found to be 0.0993.

For the sequence RRIRGRPPRLPRPRPRPTVRPRP, the “shrunken log2 fold change” value is 0.452.
